Positions count from the first letter of the chain named. Numbers in names are those of the source.

T1: canine FcRn (soluble large subunit p51 isoform X2 with 6xHis-tag, co-expressed with canine … (canine))
T1 construct: Heterodimer made by co-expression in CHO cells, purified on HISTRAP FF, >95% pure by SEC; Both entries hold a 19-residue signal peptide at the N-terminus that should be removed (residues 1-19); also called FcRn complex
T1 chain: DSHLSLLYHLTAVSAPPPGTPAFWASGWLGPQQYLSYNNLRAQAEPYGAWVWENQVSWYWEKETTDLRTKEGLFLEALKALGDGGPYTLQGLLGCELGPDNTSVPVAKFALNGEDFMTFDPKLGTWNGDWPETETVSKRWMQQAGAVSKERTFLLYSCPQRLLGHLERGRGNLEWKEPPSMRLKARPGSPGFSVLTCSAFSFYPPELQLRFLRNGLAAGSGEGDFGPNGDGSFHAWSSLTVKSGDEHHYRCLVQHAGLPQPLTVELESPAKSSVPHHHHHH
T1 b2m: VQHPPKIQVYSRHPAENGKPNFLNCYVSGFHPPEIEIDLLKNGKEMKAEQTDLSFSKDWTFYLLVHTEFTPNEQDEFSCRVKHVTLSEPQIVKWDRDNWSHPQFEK

B1: IgG with canine IgGB Fc variant N434H, T286L (antibody)
heavy: EVQLVESGGDLVAPSQSLSITCTVSGMSLTSNSISWVRQPPGRGLEWLGTIWSNGGTDYTDAVKGRFTISRDNAKNTVYLQMNSLRAEDTAMYYCAQIYYYDADYLHWYFDFWGQGTLVTVSSASTTAPSVFPLAPSCGSTSGSTVALACLVSGYFPEPVTVSWNSGSLTSGVHTFPSVLQSSGLYSLSSMVTVPSSRWPSETFTCNVAHPASKTKVDKPVPKRENGRVPRPPDCPKCPAPEAAGGPSVFIFPPKPKDTLLIARTPEVTCVVVDLDPEDPEVQISWFVDGKQMQLAKTQPREEQFNGTYRVVSVLPIGHQDWLKGKQFTCKVNNKALPSPIERTISKARGQAHQPSVYVLPPSREELSKNTVSLTCLIKDFFPPDIDVEWQSNGQQEPESKYRTTPPQLDEDGSYFLYSKLSVDKSRWQRGDTFICAVMHEALHHHYTQESLSHSPG
light: EIVMTQSPASLSASQEEKVTITCRASEGISNNLAWYQQKPGQAPKLLIHATSSLQTGVPSRFSGSGSGTDFTLTISSLQPEDFATYYCQQGYQFPLTFGQGTKVEIKRNDAQPAVYLFQPSPDQLHTGSASVVCLLNSFYPKDINVKWKVDGVIQDTGIQESVTEQDKDSTYSLSSTLTMSSTEYLSHELYSCEITHKSLPSTLIKSFQRSECQRVD
notes: Full chains; canine IgGB constant domain with MALA mutations; variable domains of WO 2023/97275
B2: IgG with canine IgGB Fc variant N434H, T286Y (antibody)
heavy: B1 heavy with L295Y
light: B1 light
notes: as for B1
B3: IgG with canine IgGB Fc variant N434H, T286W (antibody)
heavy: B1 heavy with L295W
light: B1 light
notes: as for B1
B4: IgG with canine IgGB Fc variant N434H, T286F (antibody)
heavy: B1 heavy with L295F
light: B1 light
notes: as for B1
B5: IgG with wild-type canine IgGB Fc (antibody)
heavy: B1 heavy with L295T, H445N
light: B1 light
notes: Full chains; canine IgGB constant domain with MALA mutations; variable domains of WO 2023/97275; also called Wild-type Fc

The first assay addresses T1, canine FcRn (soluble large subunit p51 …). In words: SPR, IgG on protein L chip, FcRn in flow, pH 5.9, kinetic data. Here is the method: (§1) The canine FcRn binding experiments at pH 5.9 and pH 7.4 were completed on a BIACORE™ T200 instrument. A Series S Protein L Sensor chip (Cytiva, Cat. No. BR29205137) was used to capture the antibody variants via the kappa (κ) light chain. The canine variants were captured onto the protein L chip at a flow rate of 10 μL/min for 60 seconds. Approximately 250 RUs of the variants were captured. For the low pH binding condition, 1×PBX-P+ (Cytiva, Cat. No. 28995084) was adjusted to pH 5.9. The canine FcRn was flowed over the sensor chip at 30 μL/min for 120 seconds contact time and 600 seconds dissociation time. Regeneration of the flow cells was completed by flowing over 10 mM glycine, pH 1.7 at 30 μL/min for 30 seconds. The data were evaluated by the BIACORE™ T200 Evaluation software (version 3.2.1) by fitting to a 1:1 kinetic interaction model.
On the technique in general: Surface plasmon resonance follows binding to a sensor surface in real time, without labels.
As usually defined, the Kd is the equilibrium constant for the complex coming apart. A higher Kd goes with lower affinity. Broadly, the koff is the rate constant with which the complex falls apart. Read a high koff as fast dissociation. For orientation: kon means the rate constant with which the complex forms. Higher therefore signals fast association. The molecule B1 showed a dissociation constant (Kd) of 0.0213 µM, a koff of 0.0518 s⁻¹ and a kon of 2.44e+06 M⁻¹ s⁻¹.
Consider B2, for which binding was characterised by a dissociation constant (Kd) of 0.0157 µM, the off-rate constant (koff) turned out to be 0.0318 s⁻¹ and the kon was 2.04e+06 M⁻¹ s⁻¹.
Molecule B3 gave a Kd of 0.0115 µM, a koff of 0.0321 s⁻¹ and a kon of 2.78e+06 M⁻¹ s⁻¹.
In the case of B4, the Kd came out at 0.0144 µM, the koff was 0.0361 s⁻¹ and the kon was 2.52e+06 M⁻¹ s⁻¹.

The target is the same in a further assay. In words: SPR, IgG on protein L chip, FcRn in flow, pH 5.9, 1:1 fit. Here is the method:
as §1
With B1, the Kd came to 0.0213 µM, the koff was found to be 0.0518 s⁻¹ and the kon came to 2.44e+06 M⁻¹ s⁻¹.
B2 had a Kd of 0.0157 µM, a koff of 0.0318 s⁻¹ and a kon of 2.04e+06 M⁻¹ s⁻¹.
B3 registered an equilibrium dissociation constant (Kd) of 0.0115 µM, a dissociation rate constant (koff) of 0.0321 s⁻¹ and a kon of 2.78e+06 M⁻¹ s⁻¹.
The molecule B4 gave a Kd of 0.0144 µM, a koff of 0.0361 s⁻¹ and a kon of 2.52e+06 M⁻¹ s⁻¹.

A further assay has the same target. In words: SPR, IgG on protein L chip, FcRn in flow, pH 7.4, steady state fit. The method, then: as §1
A subset of the Fc variants was tested for binding to canine FcRn at pH 7.4. For these experiments, 1×PBX-P+ (Cytiva, Cat. No. 28995084) was adjusted to pH 7.4. […] In addition, the pH 7.4 data were evaluated by the BIACORE™ T200 Evaluation software (version 3.2.1) by fitting to steady state affinity model. The kinetic binding data for the variants at pH 7.4 along with the binding data at pH 5.9 for these variants are shown in Table 7 below.
For B1, the Kd was 3.45 µM.
Molecule B2 displayed a Kd of 2.17 µM.
Same read-out and setting: in the case of B3 it was 2.07 µM; in that of B4, 2.37 µM.

The target is the same in a further assay. In words: SPR, IgG on protein L chip, FcRn in flow, pH 5.9, 1:1 fit; pH 5.9, 1:1 kinetic fit. The method, then:
as §1
In turn, B5 gave a Kd of 0.231 µM, a koff of 0.0927 s⁻¹ and an on-rate (kon) of 285000 M⁻¹ s⁻¹.

The values above are taken from patent US20240209096A1 (INVETX, published 2024).
